Like-named read-outs stand apart in the source and are kept apart here. Where no end group is shown, it is not given here.
How the values were obtained:
[1] = target: FITC-labeled pThr4 CTD peptide (16-mer, single phosphorylation at Thr4); experiment: fluorescence anisotropy (FA); conditions: read at the highest protein concentration, 100 µM, read off a plot
[2] = target: FITC-labeled pSer2 CTD peptide (16-mer, single phosphorylation at Ser2); experiment: fluorescence anisotropy (FA); conditions: read at the highest protein concentration, 100 µM, read off a plot
pThr^4 (6D7) antibody = experiment: Dot blot of pThr^4 CTD peptide after kinase treatment; type: biochemical; conditions: pThr^4 CTD peptide (18-mer), 10 μg or 5 μg, kinase-treated vs no-kinase control (fig. S1C)
From the text: Another reported Thr^4 antibody masking effect in vitro is observed when Ser^2, two residues upstream of pThr^4, is phosphorylated (pSer^2Pro^3pThr^4Ser^5). Despite the in vitro blocking effect, this potential impediment posed to pThr^4 identification is less concerning under physiological conditions as pSer^2/pThr^4 double phosphorylation is rather rare in cells ([19]). Subsequent biochemical and cellular experiments have shown that, although Ser^2 and Thr^4 phosphorylations occur around the same time during transcription cycle, they tend to occur on different heptads because kinases avoid placing a phosphate on the neighboring Ser^2 when Thr^4 is phosphorylated and vice versa ([19]). […]
Another phosphorylation mark co-occurring with Thr^4 on the same heptad is Tyr1 (accounts for ~5% of doubly phosphorylated heptads) ([19]). […] To corroborate this, we evaluated the possibility that Tyr1 phosphorylation affects pThr^4 detection by treating pThr^4-containing CTD peptide with the Tyr1 kinase, c-Abl (fig. S1B). […]
Serial dilutions of pThr^4 CTD peptide or Dyrk1a/Abl1 kinase-treated pThr^4 CTD peptide were spotted on an activated nitrocellulose membrane. […] The membrane was washed three times and visualized on a LI-COR Odyssey CLx image reader. […]

[3] = target: FITC-labeled pThr4 CTD peptide (16-mer, single phosphorylation at Thr4); experiment: fluorescence polarisation; CID protein titrated into 10 nM FITC-peptide; 50 mM Tris (pH 8.0), 300 mM NaCl, 10 mM BME; room temperature; triplicate; total binding model
[4] = target: FITC-labeled pSer2 CTD peptide (16-mer, single phosphorylation at Ser2); experiment: as above
[5] = target: FITC-labeled pThr4 CTD peptide (16-mer, single phosphorylation at Thr4); experiment: as above; remark: listed apart in the source
[6] = target: FITC-labeled pSer2 CTD peptide (16-mer, single phosphorylation at Ser2); experiment: as above; remark: listed apart in the source
[7] = target: T1, RNA Pol II CTD peptide CTD peptide (Homo sapiens, UniProt P24928, not fully specified (residue 4); also: pThr4 (heptad position 4, which repeat(s) not given here)); experiment: fluorescence anisotropy
T1 chain: YSPTSPSYSPTSPS

[8] = target: T2, RNA Pol II CTD peptide CTD peptide (Homo sapiens, UniProt P24928, not fully specified (residue 2); also: pSer2 (heptad position 2, which repeat(s) not given here)); experiment: fluorescence anisotropy
T2 chain: YSPTSPSYSPTSPS

[9] = system: pSer^2 Pol II in HEK293 nuclear extract; experiment: Western blot, pSer^2 recognition in HEK293 nuclear extract treated with phosphatase; type: biochemical, human; conditions: HEK293 nuclear extract treated with Ssu72, antibody 3E10; vs untreated and inactive Ssu72 mutant
RNA Pol II CTD = conditions: cited from earlier work
From the text: The reported enrichment of pThr^4pSer^5 double phosphorylation in cells raised concerns for Thr^4 phosphorylation detection as the masking effect by adjacent phosphorylation may block pThr^4 recognition leading to false-negative results ([19]). To address this issue, we explored the possibility of eliminating the masking effect on pThr^4 antibody recognition by selectively removing the interfering phosphate groups on Ser^5 of the CTD. Our prior biochemical and structural analyses have established phosphatase Ssu72 as a highly specific phosphatase for Ser^5 of the CTD, distinguishing Ser^5 from ...

Work on “RPRD1A-CID (residues 2 to 133) (from UniProt Q96P16) R106A” yielded a response ([1]; pThr4 CTD peptide, parent: est. 87) of 25 mP and a response ([2]; pSer2 CTD peptide, parent: est. 110) of 17 mP.

In the case of c-Abl: Tyr1 kinase, the “effect of kinase treatment on pThr^4 antibody detection” value (pThr^4 (6D7) antibody) is reported as “does not affect pThr^4 antibody recognition”.

With “RPRD2-CID (residues 19 to 149) (from UniProt Q5VT52 19-149) (domain or fragment)” the Kd [3] was 6.6 µM and the Kd [4] was 8.7 µM.

Molecule “RPRD2-CID (residues 19 to 149) (from UniProt Q5VT52) R122A” has a response ([1]; pThr4 CTD peptide, parent: est. 120) of 16 mP and a response ([2]; pSer2 CTD peptide, parent: est. 180) of 16 mP.

For “RPRD1B-CID (residues 2 to 133) (from UniProt Q9NQG5) R106A”, the response ([1]; FITC-labeled pThr4 CTD peptide, parent: est. 150) was 8 mP and the response ([2]; FITC-labeled pSer2 CTD peptide, parent: est. 170) was 8 mP.

Work on “SCAF4-CID (residues 1 to 139) (from UniProt O95104) R112A” yielded a response ([1]; pThr4 CTD peptide, parent: est. 77) of 15 mP and a response ([2]; pSer2 CTD peptide, parent: est. 170) of 17 mP.

B1: SCAF4-CID (residues 1 to 139) (domain or fragment)
chain: MDAVNAFNQELFSLMDMKPPISRAKMILITKAAIKAIKLYKHVVQIVEKFIKKCKPEYKVPGLYVIDSIVRQSRHQFGTDKDVFGPRFSKNITATFQYLYLCPSEDKSKIVRVLNLWQKNGVFKIEIIQPLLDMAAGTS
With B1 the Kd [5] was 8.1 µM and the Kd [6] was 6.7 µM.

B2: RPRD1B-CID (residues 2 to 133) (domain or fragment)
chain: SSFSESALEKKLSELSNSQQSVQTLSLWLIHHRKHAGPIVSVWHRELRKAKSNRKLTFLYLANDVIQNSKRKGPEFTREFESVLVDAFSHVAREADEGCKKPLERLLNIWQERSVYGGEFIQQLKLSMEDSK
B2 gave a Kd [5] of 5.3 µM and a Kd [6] of 22.8 µM.

B3: CHERP CID (protein)
chain: LLEETQLDMNEFDNLLQPIIDTCTKDAISAGKNWMFSNAKSPPHCELMAGHLRNRITADGAHFELRLHLIYLINDVLHHCQRKQARELLAALQKVVVPIYCTSFLAVEEDKQQKIARLLQLWEKNGYFDDSIIQQLQSPALGLGQYQ
In the case of B3, the Kd [7] is reported as 3.9 µM and the Kd [8] is reported as 10.7 µM.

B4: Ssu72: phosphatase highly specific for Ser^5 of the CTD (protein)
chain: MTDPSKLAVAVVCSSNMNRSMEAHNFLAKKGFNVRSYGTGERVKLPGMAFDKPNVYEFGTKYEDIYRDLESKDKEFYTQNGLLHMLDRNRRIKKCPERFQDTKEQFDIIVTVEERVYDLVVMHMESMESVDNRPVHVLNVDVVDNAEDALMGAFVITDMINMMAKSTDLDNDIDELIQEFEERRKRVILHSVLFY
modifications: left off: 6xHis, end not stated, state not stated | SUMO, end not stated, state not stated
For B4, the “pSer^2 signal recognition” value [9] is given as “no significant difference”, the “effect on Ser^5 phosphorylation on the CTD” value (RNA Pol II CTD; MS and biochemical assays) is given as “effectively eradicating Ser^5 phosphorylation” and the “effect on levels of pSer^2 or pThr^4” value (RNA Pol II CTD; MS and biochemical assays) is given as “no effect”. The “activity against pSer^7 relative to pSer^5” value (RNA Pol II CTD) was “about three magnitudes lower”.

B5: RPRD1A-CID (residues 2 to 133) (domain or fragment)
chain: SAFSEAALEKKLSELSNSQQSVQTLSLWLIHHRKHSRPIVTVWERELRKAKPNRKLTFLYLANDVIQNSKRKGPEFTKDFAPVIVEAFKHVSSETDESCKKHLGRVLSIWEERSVYENDVLEQLKQALYGDK
Molecule B5 has a Kd [5] of 12.3 µM and a Kd [6] of 13.8 µM.
